Consider 4 molecules from patent US9028810B2, “Composition for inducing migration of neural stem cells containing periostin as effective ingredient” (Ajou University Industry—Academic Cooperations Foundatin, priority 2010, dated 2015).

One assay has as its system neural stem cells. Kind of assay: In vitro migration assay using ERK pathway and CDK5 pathway inhibitors. It counts as cell-based, human. The conditions noted are these: 12 hours. The text has this: It has been reported that, in the development of the central nervous system, neural stem cells migrate from the subventricular zone to cortex through radial glial cells using the ERK (extracellular signal regulated kinase) and CDK5 signaling pathways, and in the neuronal migration, DCX participated in nucleus translocation, neucleokinesis (Niethammer et al., 2000).
Cultured neural stem cells were detached with 0.05% trypsin, washed with DMEM medium and re-suspended in DMEM medium, after which 5×10^4 cells were inoculated into an upper chamber (Costar Transwell) in 200 μl of 10% FBS-containing DMEM medium.
After 12 hours, in order to determine the number of cells that migrated from the upper chamber through a 8-μm porous polycarbonate membrane to the lower portion of the membrane in response to the stimulation of the lower chamber, the migrated neural stem cells were stained with hematoxylin & eosin and counted.

The test system of assay [1] is DCX and ERK in neural stem cells. Kind of assay: Transwell membrane immunostaining of ERK and DCX in migrated cells. The conditions noted are these: periostin 10 μg/ml, 12 hours; for location of DCX in migrated cells: with or without inhibitor; for cell migration: VEGF 10 ng/ml. It counts as cell-based, human. As to the method:
To analyze the ERK and DCX affection of migrated cells, transwell membrane immunostaining was performed using ERK and DCX antibodies (Cell signaling tech., Danver, Mass.).
Cultured neural stem cells were detached with 0.05% trypsin, washed with DMEM medium and re-suspended in DMEM medium, after which 5×10^4 neural stem cells were inoculated into an upper chamber (Costar Transwell) in 200 μl of 10% FBS-containing DMEM medium. After one day, a lower chamber was treated with each of VEGF (10 ng/ml), periostin (10 μg/ml) and periostin+inhibitor. After 12 hours, the changes in locations of DCX and ERK in the cells that migrated from the upper chamber through the 8-μm porous polycarbonate membrane to the lower portion of the membrane in response to the stimulation of the lower chamber were examined.
Next, the membrane was washed with PBS, blocked twice with a solution of 5% goat serum and 0.5% triton X-100 in PBS for 30 minutes, and then washed with a solution of 0.5% BSA (bovine serum albumin) in PBS for 15 minutes. After this, the membrane was incubated with a 1:500 dilution of goat polyclonal human DCX antibody and a 1:1000 dilution of rabbit polyclonal human ERK antibody at 4° C. overnight, and then washed twice with PBS for 15 minutes each time. Next, the membrane was incubated with biotin-conjugated anti-rabbit secondary antibody at room temperature for 1 hour and washed trice with PBS, after which […] was detected by staining the membrane using an avidin-biotin kit (Vector, Calif.) and a diaminbenzidin peroxidase (DAB) kit (Vector, Calif.).

Assay [2] deals with HB1.F3 human neural stem cell line. Kind of assay: Boyden chamber migration assay, HB1.F3 neural stem cells. It counts as cell-based. As to conditions: for increase in ability to induce the migration of neural stem cells compared to not treated: Boyden chamber. As to the method: (§1) In order to examine the effect of periostin on the migration of neural stem cells, a Boyden chamber assay was performed using two human neural stem cell lines (HB1.F3 and HB1.F5), thereby determining whether human neural stem cells migrated in response to periostin in vitro. For controls, VEGF (vascular endothelial growth factor) was used as a positive control, and FBS-DMEM medium was used as a negative control.
(§2) Specifically, cultured neural stem cells were detached with 0.05% trypsin, washed with DMEM medium, and then re-suspended in DMEM medium, after which 5×10^4 cells seeded into an upper chambers (Costar Transwell) in 200 μl of 10% FBS-containing DMEM medium. After one day, a lower chamber was treated with various concentrations of periostin or VEGF. The periostin was used at concentrations of 5, 10 and 20 μg/ml, and the VEGF was used at concentrations of 5, 10 and 20 ng/ml. 10% FBS-DMEM medium was used as a negative control. After 12 hours, in order to determine the number of cells that migrated from the upper chamber through a 8-μm porous polycarbonate membrane to the lower portion of the membrane in response to the stimulation of the lower chamber, the migrated neural stem cells were stained with hematoxylin and then counted.
(§3) After one day, a lower chamber was treated with 10 μg/ml of periostin, and after 4 hours, 8 hours, 12 hours and 24 hours, the migrated cells were stained with H&E (hematoxylin & eosin), counted and photographed (Olympus BX51, Japan).

For assay [3], the system named is HB1.F5 human neural stem cell line. Description: Boyden chamber migration assay, HB1.F5 neural stem cells. It is filed as cell-based. As to the method: as §1
as §2, with “The periostin was used at concentrations of 5, 10 and 20 μg/ml, and the VEGF was used at concentrations of 5, 10 and 20 ng/ml. 10% FBS-DMEM medium was used as a negative control.” left out
as §3

Assay [4] relates to PI3K/AKT signaling pathway (PI3K-AKT-mTOR-CDK5-Nudel1, PAK1). Description: Western blotting of FAK / PI3K-AKT signaling pathway after periostin treatment. It counts as cell-based, human. On the procedure: The FAK signaling pathway is linked to kinases as its downstream pathways and transduces signals. With respect to cell migration, the PI3K/AKT signaling pathway (PI3K-AKT-mTOR-CDK5-Nudel1, PAK1) is frequently used as the downstream pathway of FAK, and thus the following experiment was performed in order to determine the kinase activation pathway.
First, neural stem cells treated with periostin were washed with PBS and lysed with PMSF and a protease inhibitor in RIPA buffer (0.5% sodiumdeoxycholate, 0.1% sodiumdodecyl sulfate, 1% NP-40, PBS). Protein concentration was determined by a Bio-Rad-DC protein assay (Bio-Rad, Hercules, Calif., US). The samples were adjusted to the same protein concentration, after 30 μg of each protein was separated on SDS-PAGE gel. Then, protein samples were transferred to an immobilon-P membrane (Millipore Corp., MA, US). For protein detection, the membrane was incubated in TBS-T 5% skim milk at room temperature for 30 minutes and washed three times with TBS-T for 15 minutes each time. Then, the membrane was incubated with primary antibodies of FAK, pFAK, PAK and pPAK (1:1000 dilution; Epitomics) in 5% BSA-TBS-T overnight at 4° C. Then, the membrane was washed three times with TBS-T for 15 minutes each time. Then, the membrane was incubated with secondary anti-rabbit antibody (1:2000 dilution; Zymed, Calif., USA) at room temperature for 1 hour. The membrane was washed three times with TBS-T, after which the antibody binding protein was added to an ECL Western blotting detection solution (Amersham Pharmacia Biotechnology, buckinghamahire, UK) for 1 minute and exposed to Kodak X-ray firm for detection. The Western blotting analysis was performed at various time points between 0 and 12 hours after treatment with periostin.

The mark [5] stands for this setting: neural stem cells, Western blotting 0-12 hours.

For `COc1cccc(-c2cc(=O)c3ccccc3o2)c1N` [PD98059], the “inhibition of migration of neural stem cells induced by periostin” value with neural stem cells (20 nM inhibitor with periostin in lower chamber) was determined as 40%. Also, in the assay on neural stem cells (20 nM inhibitor), the “migration of neural stem cells in control group not treated with periostin” value is listed as “inhibited”.
As to `CC[C@H](CO)Nc1nc(NCc2ccccc2)c2ncn(C(C)C)c2n1` [roscovitine, reference compound], the “location of DCX in migrated cells” value in assay [1] is listed as “the concentration of DCX around the nuclei was inhibited”.
For “vascular endothelial growth factor [VEGF, reference compound]”, the cell migration result in assay [1] is recorded as “induced cell migration”. In addition, the “increase in ability to induce the migration of neural stem cells compared to not treated” value in assay [2] (HB1.F3 cells, 12 hours) stood at 25%. In assay [2] (tested 5, 10 and 20 ng/ml, 12 hours), the “concentration at which ability of VEGF to induce migration was the highest” value stood at 5 ng/mL.

B1: periostin (protein)
chain: NNHYDKILAHSRIRGRDQGPNVCALQQILGTKKKYFSTCKNWYKKSICGQKTTVLYECCPGYMRMEGMKGCPAVLPIDHVYGTLGIVGATTTQRYSDASKLREEIEGKGSFTYFAPSNEAWDNLDSDIRRGLESNVNVELLNALHSHMINKRMLTKDLKNGMIIPSMYNNLGLFINHYPNGVVTVNCARIIHGNQIATNGVVHVIDRVLTQIGTSIQDFIEAEDDLSSFRAAAITSDILEALGRDGHFTLFAPTNEAFEKLPRGVLERIMGDKVASEALMKYHILNTLQCSESIMGGAVFETLEGNTIEIGCDGDSITVNGIKMVNKKDIVTNNGVIHLIDQVLIPDSAKQVIELAGKQQTTFTDLVAQLGLASALRPDGEYTLLAPVNNAFSDDTLSMDQRLLKLILQNHILKVKVGLNELYNGQILETIGGKQLRVFVYRTAVCIENSCMEKGSKQGRNGAIHIFREIIKPAEKSLHEKLKQDKRFSTFLSLLEAADLKELLTQPGDWTLFVPTNDAFKGMTSEEKEILIRDKNALQNIILYHLTPGVFIGKGFEPGVTNILKTTQGSKIFLKEVNDTLLVNELKSKESDIMTTNGVIHVVDKLLYPADTPVGNDQLLEILNKLIKYIQIKFVRGSTFKEIPVTVYKPIIKKYTKIIDGVPVEITEKETREERIITGPEIKYTRISTGGGETEETLKKLLQEEVTKVTKFIEGGDGHLFEDEEIKRLLQGDTPVRKLQANKKVQGSRRRLREGRSQ
notes: induces migration of neural stem cells
As to B1, in assay [3] (HB1.F5, 10 μg/ml periostin, 4, 8, 12 and 24 hours), the “migration of neural stem cells over time” value was “increased with time”. Also, in assay [3] (HB1.F5 cells, 12 hours), the “migration of neural stem cells upon treatment” value is “increased upon treatment with periostin”. Also, the “time for which Nudel1 activation was maintained” value in assay [4] (activated when PAK1 activation decreased) worked out at 12 h. In addition, in assay [4] (setting [5]), the “time after treatment at which AKT and mTOR were activated” value was 1 h; the “time after treatment at which PAK1 started to be activated” value came out at 1 h; the “time after treatment from which FAK was highly activated” value amounted to 30 min; the “time up to which CDK5 activation was maintained” value turned out to be 12 h. For the same molecule, the “time up to which PAK1 activation was maintained” value in assay [4] (setting [5]) was determined as 6 h. Also, in assay [1], the cell migration entry is “induced cell migration” and the “location of DCX in migrated cells” value is “DCX was concentrated around the nuclei”. The “migration of neural stem cells over time” value in assay [2] (HB1.F3, 10 μg/ml periostin, 4, 8, 12 and 24 hours) is on record as “increased with time”. In assay [2] (HB1.F3 cells), the “increase in induction of migration relative to that by VEGF” value is listed as “about 4 times”. The “increase in ability to induce the migration of neural stem cells compared to not treated” value in assay [2] (HB1.F3 cells, 12 hours) is reported as “about 100%”. Further, in assay [2] (tested 5, 10 and 20 μg/ml, 12 hours), the “concentration at which ability of periostin to induce migration was the highest” value stood at 10 µg/mL.
